Laboratory results published in publication PMC9503459, “Antifungal Activity, Structural Stability, and Immunomodulatory Effects on Human Immune Cells of Defensin from the Lentil Lens culinaris” (Membranes, 2022).
pIC50: −log10 of the molar value. No end group written: not given here.

Experiments:
[1] = test system: clinical isolate of C. glabrata (252/2); assay: Antifungal microdilution assay, C. glabrata; type: cell-based, Candida glabrata; conditions: 24 h; for inhibition of the growth: C. glabrata
Method: The clinical isolates of Candida albicans (v47a3), C. krusei (225/2) and C. glabrata (252/2) were collected from patients with human immunodeficiency virus (HIV) infection and provided by G.N. Gabrichevsky Research Institute for Epidemiology and Microbiology (Moscow, Russia). Strains stocks were kept at −70 ℃ in 10% nonfat milk with 10% glycerol.
Antifungal susceptibility tests were performed by the microdilution method using 96-well microplates. Yeast cells in stock were inoculated onto modified YPD (yeast extract 5 g/L, peptone 10 g/L, glucose 10 g/L) agar plates, and incubated for 24 h at 37 ℃. After replating, cells were cultured in modified YPD broth at 37 ℃ to optical density 1.0 at 540 nm. Further, yeast cells in modified YPD broth at concentration of 5 × 10^4 cells/mL were mixed with equal volumes of serial two-fold dilutions of the peptide in water which started at the highest peptide concentration of 200 µM. Final peptide concentrations in the wells were 100, 50, 25, 12.5, 6.25, 3.125, and 1.56 μM. Controls without defensin were also tested. Plates were incubated at 30 ℃ during 24 h. Yeast growth was estimated using inverted microscope as well as by measuring the optical density at 540 nm. Percentage of growth inhibition was defined as: growth inhibition (%) = ((Acontrol − Asample)/Acontrol) × 100%. All of the experiments were performed twice in triplicate. The t-test was performed to study the statistical difference (p-value) between the means of controls and samples with different peptide concentrations. The experiment with lentil Lens culinaris lipid transfer protein Lc-LTP2 was carried out for comparison.

THP-1 cells = assay: Resazurin-based cytotoxicity assay, THP-1; type: cell-based, human; conditions: 0.2 to 50 μM, 24 h
Method: The cytotoxic properties of Lc-def and melittin as a control were investigated also by resazurin-based cell cytotoxicity assay. PBMCs and THP-1 cells were seeded in 96-well plates at 2 × 10^6 and 1 × 10^6 cells per well, respectively, in RPMI-1640 supplemented with 10% FBS, and kept in CO2-incubator. After 24 h serial two-fold dilutions of compounds in culture medium were then added to final concentrations from 0.2 to 50 μM. After 24 h of incubation with the peptides, resazurin (Sigma) was added at a final concentration of 0.7 mM, and the plates were incubated overnight (16 h). Fluorescent resorufin was registered using 535/595 filter at PlateReader AF2200 (Eppendorf, Hamburg, Germany). Untreated corresponding cells were used as negative controls. The cell viability was calculated as: cell viability (%) = (Fsample/Fcontrol) × 100%. The experiment was carried out twice in triplicate.

[2] = test system: pepsin, trypsin, α-chymotrypsin; assay: Simulated gastrointestinal digestion in vitro; type: in vitro ADME, porcine pepsin and trypsin, bovine α-chymotrypsin
Source text: Digestive enzymes (porcine pepsin and trypsin, bovine α-chymotrypsin), model protein substrate bovine α-casein, and secondary anti-rabbit IgG polyclonal goat antibodies conjugated to HRP and 3,3′,5,5′-tetramethylbenzidine (TMB) substrates were purchased from Sigma-Aldrich (St. Louis, MO, USA). Synthetic lysophospholipids (lyso-palmitoyl phosphatidylcholine (LPPC), lyso-palmitoyl phosphatidylglycerol (LPPG)) were purchased from Avanti Polar Lipids (Alabaster, AL, USA).
Sensitivity of Lc-def to digestive enzymes was examined by simulation of its gastrointestinal digestion in vitro. Gastric digestion was performed for 2 h, using 50 ng of pepsin per 1 μg of preheated at 100 °C for 30 min and intact Lc-def in 0.1 M HCl, pH 2.0. For duodenal digestion, the pH of the mixture resulting from gastric digestion was adjusted to 8.0 by addition of ammonium bicarbonate. The obtained mixture was incubated for 24 h at 37 °C with 2.5 ng of trypsin and 10 ng of α-chymotrypsin per 1 μg of the defensin. The degree of proteolysis was monitored by SDS-PAGE and RP-HPLC. Gel analysis was performed using Gel Doc XR^+ imaging system (Bio-Rad, Hercules, CA, USA) and Image Lab Software v.6.1.0 (Bio-Rad, Hercules, CA, USA). Some independent experiments were performed in each case. The experiment with α-casein was carried out for comparison.

[3] = CD spectroscopy, secondary structure at different pH and temperature; type: physicochemical
Method: Circular dichroism spectra were recorded at different temperatures using a J-810 spectropolarimeter (Jasco, Hachioji, Tokyo, Japan) in a 0.1 cm path length quartz cell (Hellma GmbH and Co. KG, Mullheim, Germany) in the 190–250 nm range 0.2 using solutions of Lc-def in 10 mM phosphate buffer, pH 7.4, or 150 mM sodium chloride, pH 2.5, simulated gastric fluid, at a concentration of 30 µM. Lysolipids were added at final concentration of 1 mM.

[4] = test system: phytopathogenic filamentous fungi including Aspergillus niger; conditions: some, but not all, tested fungi including Aspergillus niger; cited from earlier work
[5] = far-UV CD, 30 µM, 10 mM phosphate buffer pH 7.4
[6] = far-UV CD, 30 µM, 150 mM sodium chloride pH 2.5, simulated gastric fluid
[7] = pH 7.4, 20 °C end (after heating and cooling)

## Lc-def: defensin from lentil Lens culinaris seeds (UniProt:B3F051), recombinant, overexpressed in Escherichia coli (KTCENLSDSFKGPCIPDGNCNKHCKEKEHLLSGRCRDDFRCWCTRNC; disulfide (positions not given here); ends not checked; also: disulfide bonds present, pairing not given here; UniProt B3F051 28-74, looked up)
[1]; C. glabrata clinical isolate, microdilution, modified YPD, 30 °C, OD540, twice in triplicate, read-out: concentration causing 50% growth inhibition
  pIC50: 4.30 to 4.60
[1]; 50 μM peptide
  inhibition of the growth: ~90%
[1]; 100 μM peptide
  inhibition of the growth: < 100%
THP-1 cells
  cytotoxic activity: did not show any cytotoxic activity
[2]
  degradation after gastrointestinal digestion: approximately 30%
[3]; +LPPC 1 mM, pH 7.4, 20 °C
  Random, %: 31%
  α-Helix, %: 16.4%
  β-Sheet, %: 30.3%
  β-Turn, %: 22.3%
[3]; +LPPC 1 mM, pH 7.4, 20 °C end
  Random, %: 32.8%
  α-Helix, %: 5.8%
  β-Sheet, %: 39.9%
  β-Turn, %: 21.5%
[3]; +LPPC 1 mM, pH 7.4, 98 °C
  Random, %: 33.7%
  α-Helix, %: 8.1%
  β-Sheet, %: 35.7%
  β-Turn, %: 22.5%
[3]; +LPPG 1 mM, pH 7.4, 20 °C
  Random, %: 33%
  α-Helix, %: 23.6%
  β-Sheet, %: 21%
  β-Turn, %: 22.4%
[3]; +LPPG 1 mM, pH 7.4, 20 °C end
  Random, %: 32.9%
  α-Helix, %: 21.7%
  β-Sheet, %: 23.1%
  β-Turn, %: 22.2%
[3]; +LPPG 1 mM, pH 7.4, 98 °C
  Random, %: 35%
  α-Helix, %: 18.5%
  β-Sheet, %: 24.1%
  β-Turn, %: 22.4%
[3]; [5]
  Random, %: 33.9%
  α-Helix, %: 15.5%
  β-Sheet, %: 28.5%
  β-Turn, %: 22.2%
[3]; [6]
  Random, %: 35.8%
  α-Helix, %: 13.9%
  β-Sheet, %: 25.4%
  β-Turn, %: 24.8%
[3]; pH 7.4, 20 °C (before heating)
  Random, %: 34%
  α-Helix, %: 15.9%
  β-Sheet, %: 27.7%
  β-Turn, %: 22.3%
[3]; [7]
  Random, %: 35.9%
  α-Helix, %: 9%
  β-Sheet, %: 32.1%
  β-Turn, %: 22.9%
[3]; pH 7.4, 98 °C
  Random, %: 35.3%
  α-Helix, %: 13.3%
  β-Sheet, %: 29.6%
  β-Turn, %: 21.8%
[4]
  activity against phytopathogenic filamentous fungi: active
